Assay results reported in US5726286.
Read-outs that look alike come from different tables or passages of the source.

Experiments:
[1] = target: human MHC class II β chain (human)
[2] = target: human MHC class II β chain (human); remark: listed apart in the source

Substance	Plaques/10^6 PBMC (anti-SRBC antibody formation, hemolytic plaque assay) (Plaques/10^6 PBMC) [1]	Plaques/10^6 PBMC (anti-SRBC antibody formation, hemolytic plaque assay) (Plaques/10^6 PBMC) [2]
BZLF2/Fc fusion protein	0	–
IL-4 receptor/Fc fusion protein	788	–
Tie/Fc (Fc fusion)	–	606
